From PMC7196805

Molecular target: T1, JUNO (mouse (endogenous in mouse oocytes)) (UniProt Q9EQF4)
T1 sequence: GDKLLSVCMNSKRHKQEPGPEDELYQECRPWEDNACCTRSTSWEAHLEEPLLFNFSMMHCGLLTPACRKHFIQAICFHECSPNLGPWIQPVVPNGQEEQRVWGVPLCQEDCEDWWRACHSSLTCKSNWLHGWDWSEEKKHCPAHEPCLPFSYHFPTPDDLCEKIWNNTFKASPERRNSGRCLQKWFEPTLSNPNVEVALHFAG

- cell-oocyte binding assay: IZUMO1-expressing cultured cells bound per ZP-free oocyte (FIMP-expressing cells could not bind) (cells per oocyte): 4
- cell-oocyte binding assay: transfected HEK293T cells coexpressing IZUMO1 and FIMP, bound per oocyte (coexpression of FIMP did not enhance the binding) (cells per oocyte): 4.1
- cell-oocyte binding assay: transfected HEK293T cells expressing IZUMO1 alone, bound per oocyte (cells per oocyte): 4.5
B1: IZUMO1 (natural protein)
chain: CIKCDQFVTDALKTFENTYLNDHLPHDIHKNVMRMVNHEVSSFGVVTSAEDSYLGAVDENTLEQATWSFLKDLKRITDSDLKGELFIKELLWMLRHQKDIFNNLARQFQKEVLCPNKCGVMSQTLIWCLKCEKQLHICRKSLDCGERHIEVHRSEDLVLDCLLSWHRASKGLTDYSFYRVWENSSETLIAKGKEPYLTKSMVGPEDAGNYRCVLDTINQGHATVIRYDVTVLPPKHSEENQPPNIITQEEHETPVHVTPQTPPGQEPESELYPELHPELYPELIPTVAQNPEKKMKTRLLILLTLGFVVLVASIIISVLHFRKVSAKLKNASDEVKPTASGSKSDQSLSQQMGLKKASQADFNSDYSGDKSEATEN
